Data on 4 substances can be found in US20220307159.

Series [1] has as its target eIF3 complex (detected via eIF3b) (Homo sapiens) (UniProt Q14152+P55884+Q99613+O15371+P60228+O00303+O75821+O15372+Q13347+O75822+Q9UBQ5+Q9Y262+Q7L2H7). Description: pulldown. As to conditions: RIP-chip co-IP with anti-eIF3b, 4 C.
In a further series the target is T1, LIN28A (UniProt Q9H9Z2).
T1 sequence: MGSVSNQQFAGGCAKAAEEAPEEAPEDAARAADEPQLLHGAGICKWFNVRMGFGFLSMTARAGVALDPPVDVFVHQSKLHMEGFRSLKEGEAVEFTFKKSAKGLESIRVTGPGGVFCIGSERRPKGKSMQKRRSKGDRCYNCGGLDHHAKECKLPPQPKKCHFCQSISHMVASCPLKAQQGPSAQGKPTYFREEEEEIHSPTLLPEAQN
Description: pulldown. As to conditions: RIP-chip microarray, TALON beads, 4 C.

Take “HIV_2014_Siegfried_nucs_1_753_2_Multi (HIV-1 gag IRES)”: in series [1], the binding signal (top % (rank 568)) worked out at 6.58. In series [1], “HIV_2014_Siegfried_nucs_1_753_9 (HIV-1 gag IRES)” gave a binding signal (top % (rank 17)) of 0.2.

In the series with LIN28A, hsa-mir-532 gave a binding signal (Cy5 intensity (rank 10)) of 7.39. pre-hsa-mir-940 returned a binding signal (Cy5 intensity (rank 6)) with LIN28A of 7.5.
